Experimental data as given in publication PMC9352680, “A comprehensive thermodynamic model for RNA binding by the Saccharomyces cerevisiae Pumilio protein PUF4”.
Numbering of substitutions follows the chain as printed. Names may count otherwise.

Biological target: T1, PUF4 RNA-binding domain (Saccharomyces cerevisiae, UniProt P25339 537-888)
T1 sequence: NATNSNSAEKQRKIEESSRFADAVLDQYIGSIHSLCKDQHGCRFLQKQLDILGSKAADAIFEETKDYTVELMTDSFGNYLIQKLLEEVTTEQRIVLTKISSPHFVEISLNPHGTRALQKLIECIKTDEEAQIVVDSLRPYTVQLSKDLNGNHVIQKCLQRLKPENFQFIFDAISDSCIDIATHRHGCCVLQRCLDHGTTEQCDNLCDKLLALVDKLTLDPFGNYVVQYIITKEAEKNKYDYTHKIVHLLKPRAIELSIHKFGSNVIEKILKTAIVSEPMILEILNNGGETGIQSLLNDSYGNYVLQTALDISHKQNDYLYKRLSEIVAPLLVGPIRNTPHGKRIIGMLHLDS
Assay: Mg; RNA-MaP; 20 mM Na-HEPES pH 7.4, 30 mM KOAc, 0.75 mM MgCl2, 0.1% Tween-20, 5% glycerol, 0.1 mg/mL BSA, 2 mM DTT; 25 C; 0.0125-409.6 nM protein
Details: tags: N-His6-TEV cleaved; C-SNAP kept, Cy3B-labelled; label: tethered on chip by stalled RNA polymerase

B1: Ic_S2_P5E.1_K5.1_C5.1_H5.1_A5.1_[T6A]_[A7C]_F5.1_[T8C]_[T9A]_[A10T]_T5.1 (ssRNA)
RNA: UUUGAUUAAUAUGAUAUCGUUCUUUCUUGUAUACCAUUUCUUUCUCGAUAUCAUAUUAAUCUUU
- Kd: 13.7 nM

B2: Ic_S2_P5E.1_K5.1_C5.1_H5.1_A5.1_[T6C]_[A7G]_F5.1_[T8C]_[T9C]_[A10G]_T5.1 (ssRNA)
RNA: B1 RNA with A33C, C34G, A36C, U37G
- Kd: 1530 nM

B3: Ic_S2_P5E.1_K5.1_C5.1_H5.1_A5.1_[T5A]_[T6C]_[A7G]_F5.1_[T9A]_[A10G]_T5.1 (ssRNA)
RNA: B1 RNA with U32A, A33C, C34G, C35U, U37G
- Kd: 69.1 nM

B4: Ic_S2_P5E.1_K5.1_C5.1_H5.1_A5.1_[T5G]_[A7C]_F5.1_[T8G]_[A10G]_T5.1 (ssRNA)
RNA: B1 RNA with U32G, A33U, C35G, A36U, U37G
- Kd: 492 nM

B5: Ic_S2_P5E.1_K5.1_C5.1_H5.1_A5.1_[T6C]_[A7T]_F5.1_[T8A]_[T9G]_[A10C]_T5.1 (ssRNA)
RNA: B1 RNA with A33C, C34U, C35A, A36G, U37C
- Kd: 23.8 nM

B6: Ic_S2_P5E.1_K5.1_C5.1_H5.1_A5.1_[T5A]_[T6A]_F5.1_[A10T]_T5.1 (ssRNA)
RNA: B1 RNA with U32A, C34A, C35U, A36U
- Kd: 53.3 nM

B7: Ic_S2_P5E.1_K5.1_C5.1_H5.1_A5.1_[T5G]_[T6C]_F5.1_[T8G]_[T9C]_[A10T]_T5.1 (ssRNA)
RNA: B1 RNA with U32G, A33C, C34A, C35G, A36C
- Kd: 905 nM

Binder: UCUCUUUGUGUAUCAUCUCUU (ssRNA) [Ib_S1_P4E.1_K4.1_C4.1_H4.1_[A4G]_A4.1_F4.1_[T8C]_T4.1]
- Kd: 30.1 nM

B8: Ic_S2_P5E.1_K5.1_C5.1_H5.1_A5.1_[T5C]_F5.1_[T8A]_[T9A]_[A10T]_T5.1 (ssRNA)
RNA: B1 RNA with U32C, A33U, C34A, C35A
- Kd: 25.3 nM

B9: Ic_S2_P5E.1_K5.1_C5.1_H5.1_A5.1_[T5G]_[T6C]_F5.1_[T8A]_[T9A]_[A10C]_T5.1 (ssRNA)
RNA: B1 RNA with U32G, A33C, C34A, C35A, U37C
- Kd: 653 nM

B10: Ic_S2_P5E.1_K5.1_C5.1_H5.1_A5.1_[T5A]_[T6A]_[A7C]_F5.1_[T8G]_[T9C]_[A10C]_T5.1 (ssRNA)
RNA: B1 RNA with U32A, C35G, A36C, U37C
- Kd: 611 nM

B11: Ic_S2_P5E.1_K5.1_C5.1_H5.1_A5.1_[A7T]_F5.1_[T8A]_[A10G]_T5.1 (ssRNA)
RNA: B1 RNA with A33U, C34U, C35A, A36U, U37G
- Kd: 15.8 nM

B12: Ic_S2_P5E.1_K5.1_C5.1_H5.1_A5.1_[A7T]_F5.1_[T8C]_[T9A]_T5.1 (ssRNA)
RNA: B1 RNA with A33U, C34U, U37A
- Kd: 389 nM

B13: Ic_S2_P5E.1_K5.1_C5.1_H5.1_A5.1_[T5C]_[T6A]_[A7C]_F5.1_[T8A]_[T9A]_T5.1 (ssRNA)
RNA: B1 RNA with U32C, C35A, U37A
- Kd: 10.8 nM

B14: Ic_S2_P5E.1_K5.1_C5.1_H5.1_A5.1_[T6A]_[A7C]_F5.1_[T8C]_[T9A]_[A10C]_T5.1 (ssRNA)
RNA: B1 RNA with U37C
- Kd: 31.2 nM

B15: Ic_S2_P5E.1_K5.1_C5.1_H5.1_A5.1_[T5C]_F5.1_[T9A]_[A10T]_T5.1 (ssRNA)
RNA: B1 RNA with U32C, A33U, C34A, C35U
- Kd: 0.408 nM

B16: Ic_S2_P5E.1_K5.1_C5.1_H5.1_A5.1_[T5A]_F5.1_[T9A]_[A10T]_T5.1 (ssRNA)
RNA: B1 RNA with U32A, A33U, C34A, C35U
- Kd: 1.32 nM

B17: Ic_S2_P5E.1_K5.1_C5.1_H5.1_A5.1_[T5C]_[T6A]_[A7C]_F5.1_[T9C]_T5.1 (ssRNA)
RNA: B1 RNA with U32C, C35U, A36C, U37A
- Kd: 7.78 nM

Binder: UCUCUUUGUUUAUCAUCUCUU (ssRNA) [Ib_S1_P4E.1_K4.1_C4.1_H4.1_[A4T]_A4.1_F4.1_[T8C]_T4.1]
- Kd: 917 nM

B18: Ic_S2_P5E.1_K5.1_C5.1_H5.1_A5.1_[A7G]_F5.1_[T8C]_[T9C]_T5.1 (ssRNA)
RNA: B1 RNA with A33U, C34G, A36C, U37A
- Kd: 497 nM

B19: Ic_S2_P5E.1_K5.1_C5.1_H5.1_A5.1_[T5C]_[T6C]_F5.1_[T9A]_[A10C]_T5.1 (ssRNA)
RNA: B1 RNA with U32C, A33C, C34A, C35U, U37C
- Kd: 1.13 nM

B20: Ic_S2_P5E.1_K5.1_C5.1_H5.1_A5.1_[T5C]_[T6A]_[A7C]_F5.1_[T8C]_[T9A]_[A10T]_T5.1 (ssRNA)
RNA: B1 RNA with U32C
- Kd: 14.9 nM

B21: Ic_S2_P5E.1_K5.1_C5.1_H5.1_A5.1_[T5C]_[T6G]_[A7T]_F5.1_[T8G]_[T9G]_[A10T]_T5.1 (ssRNA)
RNA: B1 RNA with U32C, A33G, C34U, C35G, A36G
- Kd: 211 nM

B22: Ic_S2_P5E.1_K5.1_C5.1_H5.1_A5.1_[T6A]_[A7C]_F5.1_[T9A]_[A10C]_T5.1 (ssRNA)
RNA: B1 RNA with C35U, U37C
- Kd: 1.15 nM

B23: Ic_S2_P5E.1_K5.1_C5.1_H5.1_A5.1_[T6A]_[A7C]_F5.1_[T8G]_[T9G]_[A10T]_T5.1 (ssRNA)
RNA: B1 RNA with C35G, A36G
- Kd: 571 nM

B24: Ic_S2_P5E.1_K5.1_C5.1_H5.1_A5.1_[T5C]_[T6A]_[A7C]_F5.1_[T8C]_[T9C]_[A10C]_T5.1 (ssRNA)
RNA: B1 RNA with U32C, A36C, U37C
- Kd: 67.3 nM

B25: Ic_S2_P5E.1_K5.1_C5.1_H5.1_A5.1_[T5C]_[A7T]_F5.1_[T8C]_[T9A]_[A10T]_T5.1 (ssRNA)
RNA: B1 RNA with U32C, A33U, C34U
- Kd: 80.5 nM

B26: Ic_S2_P5E.1_K5.1_C5.1_H5.1_A5.1_[T6C]_[A7T]_F5.1_[T8A]_[A10C]_T5.1 (ssRNA)
RNA: B1 RNA with A33C, C34U, C35A, A36U, U37C
- Kd: 12.7 nM

B27: Ic_S2_P5E.1_K5.1_C5.1_H5.1_A5.1_[T5A]_[A7T]_F5.1_[T8G]_[T9C]_[A10C]_T5.1 (ssRNA)
RNA: B1 RNA with U32A, A33U, C34U, C35G, A36C, U37C
- Kd: 622 nM
